Assay results from the supplement of paper PMC9170038.

Test system: MS2 coat protein
Test: apparent KD of MS2 coat protein; designed switch direction (-1 OFF switch, 1 ON switch): -1; higher = weaker reporter binding
Outline: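 Designed RNA switches with common flanks were transcribed on Illumina chips by stalled E. coli RNA polymerase and titrated with SNAP-549-labelled MS2 coat protein, from 0.7 or 1.5 nM doubling to 3 µM, in Tris-HCl pH 7.5 buffer with KCl, MgCl2, BSA, DTT, tRNA and Tween-20. Steps lasted 0.8–1.5 h (lowest) to 10–20 min (highest). Titrations ran without input, with 200 uM small-molecule ligand, or with an oligonucleotide input. Normalised cluster fluorescence was curve-fitted, and apparent KD is the per-design median over clusters.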

[1] = Eterna round: R95, input ligand: FMN 200 uM
[2] = Eterna round: R95, input ligand: microRNA oligo, concentration not stated
[3] = Eterna round: R95, input ligand: none
[4] = input ligand: microRNA oligo, concentration not stated

Row | Sequence | apparent KD of MS2 coat protein [1] [nM] | apparent KD of MS2 coat protein [2] [nM] | apparent KD of MS2 coat protein [3] [nM] | apparent KD of MS2 coat protein (input ligand: FMN 200 uM) [nM] | apparent KD of MS2 coat protein (input ligand: none) [nM] | apparent KD of MS2 coat protein [4] [nM]
1 | AGUAACUAUCACGAAAGUGAUAGUUACACAAGCAGUGAAACAUGAGGAUCACCCAUGUCCUCAUAUGCUCGUCUUAU [Sensor 3 - 30] (puzzle: Sensor v3, turn-off variant 2) | 119 | 1280 | 114 |  |  | 
2 | AGUAAGCUAGGAUAUGCUUUGGGAAAGCCUUCCUUCGAUAAACUUGAGGAUCACCCAAGUAGAAGGAGCUAAAU [jl-ex2.4.48 ViennaUCT mod] (Eterna round: R97, puzzle: Exclusion 2) |  |  |  | 16.7 | 16 | 
3 | AGUACUAACACCGUUGUGUUAGUACAAUAAGCUUGUGAAACAUGAGGAUCACCCAUGUCCUCAUAAGCUCGUCUUAU [salish99_TOv2_r3_071] (puzzle: Sensor v3, turn-off variant 2) | 16.3 | 784 | 16.2 |  |  | 
4 | AGUACUAACACGAAAGUGUUAGUACAAUAAGCUAGUGGAACAUGAGGAUCACCCAUGUCCUCAUUAGCUCGUCUUAU [Mat - Sensor v3 - Turn-off var 2 - D33] (puzzle: Sensor v3, turn-off variant 2) | 16.3 | 36.6 | 13.4 |  |  | 
5 | AGUACUAACACGAAAGUGUUAGUACUAUAAGCUUGUGAAACAUGAGGAUCACCCAUGUCCUCAUAAGCUCGUCUUAU [Mat - Sensor v3 - Turn-off var 2 - D102] (puzzle: Sensor v3, turn-off variant 2) | 17.3 | 780 | 17 |  |  | 
6 | AGUACUAACACGAAAGUGUUAGUACUAUAAGUUUGUGUUACAUGAGGAUCACCCAUGUCCUCAUAAGCUCGUCUUGU [Mat - Sensor v3 - Turn-off var 2 - D95] (puzzle: Sensor v3, turn-off variant 2) | 911 | 199 | 626 |  |  | 
7 | AGUACUAACACGAAAGUGUUUGUACAAUAAGCUUGUGAAACAUGAGGAUCACCCAUGUCCUCAUAAGCUCGUCUUAU [salish99_TOv2_r3_035] (puzzle: Sensor v3, turn-off variant 2) | 17.5 | 580 | 17.1 |  |  | 
8 | AGUACUAACACGAUAGUGUUAGUACUAUAAGCUUGUGUUACAUGAGGAUCACCCAUGUCCUCAUAAGCUCGUCUUGA [Mat - Sensor v3 - Turn-off var 2 - D92] (puzzle: Sensor v3, turn-off variant 2) | 33.3 | 467 | 40.6 |  |  | 
9 | AGUACUAACACGUUAGUGUUAGUACAAUAAGCUUGUGAAACAUGAGGAUCACCCAUGUCCUCAUAAGCUCGUCUUAU [salish99_TOv2_r3_056] (Eterna round: R96, puzzle: Sensor v3, turn-off variant 2) |  |  |  | 16 | 17.9 | 466
10 | AGUACUAACACGUUAGUGUUAGUACAAUAAGCUUGUGAAACAUGAGGAUCACCCAUGUCCUCAUAAGCUCGUCUUAU [salish99_TOv2_r3_056] (puzzle: Sensor v3, turn-off variant 2) | 16.7 | 645 | 16.1 |  |  | 
11 | AGUACUAUCACGAAAGUGAUAGUACAAUAAGCAAGUGAAACAUGAGGAUCACCCAUGUCCUCAUUUGCUCGUCUUAU [JL turnoff v2 74] (Eterna round: R96, puzzle: Sensor v2, turn-off variant 2) |  |  |  | 16.7 | 19.1 | 400
12 | AGUACUAUCACGAAAGUGAUAGUACAAUAAGCAAGUGAAACAUGAGGAUCACCCAUGUCCUCAUUUGCUCGUCUUAU [salish99_TOv2_r3_200again] (puzzle: Sensor v3, turn-off variant 2) | 17.8 | 749 | 17 |  |  | 
13 | AGUACUAUGCGUGCUGACAUGCGUAGUGCAGCAGGUGUUACAUGAGGAUCACCCAUGUCCUCAUUUGCUCGUCUUAA [Mat - Sensor v3 - Turn-off var 2 - D16] (puzzle: Sensor v3, turn-off variant 2) | 88 | 115 | 97.6 |  |  | 
14 | AGUAGGAGAGGAUAUACAAGAAGUCGAAAGACUUCAACUCAACAUGAGGAUCACCCAUGUAGAAGGCUCCUACA [Omei Ex2 BD A5] (Eterna round: R97, puzzle: Exclusion 2) |  |  |  | 83.3 | 17.9 | 
15 | AGUAGUAGUAUCCGAUCCUACAUGAGGAUCACCCAUGUAGCUAGACGUGCACGCGAUGCUCGUCGGACUACCAGAUG [salish99_TOv1_r3_043] (puzzle: Sensor v3, turn-off variant 1) | 48 | 46.9 | 63.4 |  |  | 
16 | AGUAGUAGUAUCCGAUCCUACAUGAGGAUCACCCAUGUGGCUAGACGUGCACGCGAUGCUCGUCAGACUACCAGAUG [salish99_TOv1_r3_038] (puzzle: Sensor v3, turn-off variant 1) | 404 | 269 | 506 |  |  | 
17 | AGUAGUAGUAUCCGAUCCUACAUGAGGAUCACCCAUGUUGCUAGACGUGCACGCGAUGCUCGUCAGACUACCAGAUG [salish99_TOv1_r3_050] (puzzle: Sensor v3, turn-off variant 1) | 326 | 150 | 157 |  |  | 
18 | AGUAGUAGUAUCCGAUCUUACAUGAGGAUCACCCAUGUAUCUAGACGUGCACGCGAUGCUCGUCAGACUACCAGAUG [salish99_TOv1_r3_052] (puzzle: Sensor v3, turn-off variant 1) | 49.3 | 66.3 | 60.1 |  |  | 
19 | AGUAUGCGGCAGGAUAUCCAUCCGCGGAAAGGUGGAGAAGGGCUGACAUGAGGAUCACCCAUGUGCGUCCUGUA [salish99_ex6_r4_029] (Eterna round: R97, puzzle: Exclusion 6) |  |  |  | 33.5 | 20.4 | 
20 | AGUCGAAAGACAAAUAAAAACAUGAGGAUCACCCAUGUAAUGGGUGAAAACAAGCUCACCGUUCGUCUUAAAGAAAA [JL turnoff v1 57] (Eterna round: R96, puzzle: Sensor v2, turn-off variant) |  |  |  | 607 | 302 | 40.7
21 | AGUCUGCUAGGAUAUACAUGAGGAUCACCCAUGUCUAUCAAUAGACUAUUAACCUGGUGUAGAAGGAGCUUGUA [Onatlacein] (puzzle: Exclusion 3) |  | 11.1 |  |  |  | 
22 | AGUGCUAACACGUUGGUGUUAGUACCAUAAGCUUGUGAUACAUGAGGAUCACCCAUGUCCUCAUAAGCUCGUCUUAU [salish99_TOv2_r2_098] (puzzle: Sensor v3, turn-off variant 2) | 30.6 | 508 | 29.4 |  |  | 
23 | AGUGUGUGGCAGGAUAUUCCGGUCGUUGGUCGGGAAGAAGGGUCUACAUGAGGAUCACCCAUGUGAGCGGUUGA [Ex6 #50] (Eterna round: R97, puzzle: Exclusion 6) |  |  |  | 489 | 379 | 
24 | AGUGUGUUAGGAUAUCGCAUAUGCUGGAGGAGGUGGAGUUACGAGAAGGAACAUGAGGAUCACCCAUGUAGGAC [JR_Exclu4_Sub050] (puzzle: Exclusion 4) |  | 25.7 |  |  |  | 
25 | AGUUCACAUGAGGAUCACCCAUGUGAGGAUAUGGAUUCGCUGGCCGUAGCCAGUGGAUCCAGAAGGCGCGUGAU [JL-ex1-4.15] (Eterna round: R97, puzzle: Exclusion 1) |  |  |  | 55.7 | 65.1 | 
26 | AGUUGGCGAGGAUAUACAUGAGGAUCACCCAUGUGAAGAAGAAGAGUGAGGAAGAAAAGUAGAAGGCGCUGACA [Mat - Exclusion 3 - Mod of Salish D38] (puzzle: Exclusion 3) | 87.9 | 84 | 50.7 |  |  | 
27 | AGUUGGCGAGGAUAUACAUGAGGAUCACCCAUGUGAGAGAAUAAAGUGAGAAAGAAAAGUAGAAGGCGCUGACG [Mat - Exclusion 3 - Mod of Salish D50] (puzzle: Exclusion 3) | 82.8 | 62.7 | 41.4 |  |  | 
28 | AGUUGGCGAGGAUAUACAUGAGGAUCACCCAUGUGAGAGAUACUAGUGAGGUCGGUUAGUAGAAGGCGCUGACA [Mat X3R4 m16] (Eterna round: R97, puzzle: Exclusion 3) |  |  |  | 344 | 35.5 | 
29 | AGUUGGCGAGGAUAUACAUGAGGAUCACCCAUGUGAGAGAUAGUAGUGAGGUCGAUUAGUAGAAGGCGCUGACA [Mat X3R4 m13] (Eterna round: R97, puzzle: Exclusion 3) |  |  |  | 278 | 353 | 
